Four molecules from patent US20230192845A1 (BLINK BIOMEDICAL, published 2023) can be followed below.

Where only a bound is given, the exact number is not on record here.

Test [1] deals with T1, human CD96 short isoform v2 expressed on CHO cells (human, UniProt P40200 22-585).
T1 construct: also called hCD96v2; CD96v2; not shown: C-terminal HA-tag
T1 sequence: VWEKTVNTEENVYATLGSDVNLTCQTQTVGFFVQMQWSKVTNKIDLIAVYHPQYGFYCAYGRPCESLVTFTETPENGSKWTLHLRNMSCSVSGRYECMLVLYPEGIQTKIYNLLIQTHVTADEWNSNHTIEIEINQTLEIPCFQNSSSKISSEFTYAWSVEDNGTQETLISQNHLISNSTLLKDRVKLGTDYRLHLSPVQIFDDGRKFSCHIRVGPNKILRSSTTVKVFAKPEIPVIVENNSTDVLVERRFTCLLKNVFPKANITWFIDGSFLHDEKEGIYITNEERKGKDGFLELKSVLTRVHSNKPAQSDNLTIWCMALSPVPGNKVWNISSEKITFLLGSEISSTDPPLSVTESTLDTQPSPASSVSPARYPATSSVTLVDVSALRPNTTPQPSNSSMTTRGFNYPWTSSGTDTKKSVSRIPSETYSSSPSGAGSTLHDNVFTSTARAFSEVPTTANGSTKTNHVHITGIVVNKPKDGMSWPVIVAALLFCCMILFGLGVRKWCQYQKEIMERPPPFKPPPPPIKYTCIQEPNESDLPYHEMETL
Put plainly: FCM on hCD96v2-CHO cells. How it is done:
FIG. 6: Binding profiles of anti-hCD96 antibodies on human CD96-transfected CHO cells (hCD96v2, short isoform). CHO cells expressing hCD96v2 were incubated with serial dilution of the indicated mIgG1 or mIgG2a anti-CD96 or isotype control antibodies. […] The results are expressed as the difference of mean fluorescence intensity (delta MFI) between cells stained with antibodies and cells without antibodies. Dose response curves were obtained from GraphPad prism software using a non-linear regression fit with a variable slope model (4 parameters). To simplify the reading, results from the various anti-hCD96 candidates are shown on 4 different panels.
The capacity of the identified mouse anti-CD96 antibodies to recognize the cell membrane expressed human CD96 was further analyzed by flow cytometry (FCM) by using CHO cells stably transfected with the CD96 short isoform v2 (CD96v2; Genbank accession number NM_005816, flanked in C-terminus with HA-tag) (SEQ ID NO: 268).
Mouse anti-CD96 antibodies and isotype control antibodies were incubated at various concentrations from 10 μg/mL to 4.6 ng/mL with CHO cells expressing human CD96 at +4° C. for 30 minutes. […] The differences between the mean fluorescence intensity (MFI) obtained for each of the antibody concentration and the intensity obtained in absence of primary antibody (delta-MFI), were calculated and plotted against the concentrations of antibodies.

Test [2] addresses T1, human CD96 short isoform v2 expressed …. Put plainly: FCM, inhibition of hCD155-Fc binding to hCD96v2-CHO cells. How it is done: (§1) All candidates except BL006-2-19 that bound very weakly on hCD96v2 by FCM were tested for their capacity to inhibit the binding of human CD155 to hCD96v2 stably expressed on CHO cells. Human CD96-transfected CHO cells (3×10⁵ cells/well of 96-well plate) were incubated at +4° C. for 30 minutes with serial dilutions of anti-CD96 antibodies or isotype control antibody (in mIgG2a or mIgG2aD265A format) in the presence of 4 μg/mL of biotinylated hCD155-Fc (produced and biotinylated at BliNK).
(§2) % inhibition=(1−(MFI_wAb&CD155−MFI_CHO)/(MFI_wCD155−MFI_CHO))×100, where MFI_wAb&CD155 is the Mean Intensity Fluorescence (MFI) obtained with the hCD96-CHO cells incubated with the tested antibody and hCD155-hFc; MFI_CHO is the MFI obtained in the absence of hCD155 and mAbs; and MFI_wCD155 is the fluorescence with hCD155 but without pre-incubation with antibody (0% CD155 binding inhibition). The % of inhibition was plotted against antibody concentration and the IC50 values were calculated by using a nonlinear regression analysis model of the GraphPad Prism software.

The target in test [3] is T2, rhesus CD96 transiently expressed on CHO cells (rhesus, UniProt P40200 22-585 (human entry)).
T2 construct: also called rhesus CD96, short isoform
T2 chain: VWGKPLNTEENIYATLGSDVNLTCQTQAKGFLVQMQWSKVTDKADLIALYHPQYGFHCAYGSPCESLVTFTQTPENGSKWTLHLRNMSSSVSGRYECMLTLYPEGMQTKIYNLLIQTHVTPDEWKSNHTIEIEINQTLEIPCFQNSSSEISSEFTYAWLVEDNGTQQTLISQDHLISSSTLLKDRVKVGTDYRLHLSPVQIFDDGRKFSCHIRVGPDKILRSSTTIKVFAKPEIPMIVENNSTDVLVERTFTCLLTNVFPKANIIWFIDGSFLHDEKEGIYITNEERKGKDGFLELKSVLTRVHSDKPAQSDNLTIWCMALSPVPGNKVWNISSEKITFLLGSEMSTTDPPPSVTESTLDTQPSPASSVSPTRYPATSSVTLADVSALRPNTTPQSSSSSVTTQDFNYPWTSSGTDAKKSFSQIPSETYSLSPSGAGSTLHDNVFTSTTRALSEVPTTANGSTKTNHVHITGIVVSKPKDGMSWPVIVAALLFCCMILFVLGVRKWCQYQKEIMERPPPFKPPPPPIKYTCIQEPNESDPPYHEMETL
Put plainly: flow cytometry on CHO cells transiently expressing rhesus CD96; antibody at 1 (thin line) and 10 µg/ml (thick dashed line), filled grey = isotype control. Here is the method:
FIG. 7: Binding profiles of anti-CD96 antibodies on CHO cells transfected with rhesus CD96. Anti-CD96 antibodies or the corresponding isotype control mAbs were tested for their capacity to recognize rhesus CD96 transiently expressed on CHO cells by flow cytometry. Each histogram represents the overlay of the fluorescence intensity obtained for each antibody tested at 1 (black line) and 10 μg/ml (thick dashed black line) and compared to the fluorescence obtained with an isotypic control (filled grey histogram).
(§3) The capacity of the identified mouse anti-human CD96 antibodies to recognize the CD96 protein from other species was further analyzed by flow cytometry by using CHO cells expressing the mouse or the rhesus CD96. The expression of the species-specific CD96 on CHO cell surface was confirmed by using staining with appropriate anti-CD96 antibodies and flow cytometry on non-fixed cells. The rat anti-mCD96 antibody clone #630612 (R&D Systems) and the candidate BL006-9-1 (positive by ELISA on rhesus CD96) were used to confirm the expression of rhesus CD96, while the clone 6A6 (rat IgG2a, e-Bioscience) was used to verify the expression of mouse CD96.
(§4) Mouse anti-CD96 antibodies and isotype control antibodies were incubated at 10 or 1 μg/mL with CHO cells expressing different CD96 species at +4° C. for 30 minutes.

In test [4] the target is T1, human CD96 short isoform v2 expressed …. Put plainly: FCM, inhibition of hCD155-Fc binding to hCD96v2-CHO cells; relative IC50. Here is the method:
as §1, §2

In test [5] the target is T3, mouse CD96 expressed on CHO cells (mouse, UniProt Q3U0X8 22-602).
T3 construct: whole, on cells; also called mCD96
T3 sequence (looked up): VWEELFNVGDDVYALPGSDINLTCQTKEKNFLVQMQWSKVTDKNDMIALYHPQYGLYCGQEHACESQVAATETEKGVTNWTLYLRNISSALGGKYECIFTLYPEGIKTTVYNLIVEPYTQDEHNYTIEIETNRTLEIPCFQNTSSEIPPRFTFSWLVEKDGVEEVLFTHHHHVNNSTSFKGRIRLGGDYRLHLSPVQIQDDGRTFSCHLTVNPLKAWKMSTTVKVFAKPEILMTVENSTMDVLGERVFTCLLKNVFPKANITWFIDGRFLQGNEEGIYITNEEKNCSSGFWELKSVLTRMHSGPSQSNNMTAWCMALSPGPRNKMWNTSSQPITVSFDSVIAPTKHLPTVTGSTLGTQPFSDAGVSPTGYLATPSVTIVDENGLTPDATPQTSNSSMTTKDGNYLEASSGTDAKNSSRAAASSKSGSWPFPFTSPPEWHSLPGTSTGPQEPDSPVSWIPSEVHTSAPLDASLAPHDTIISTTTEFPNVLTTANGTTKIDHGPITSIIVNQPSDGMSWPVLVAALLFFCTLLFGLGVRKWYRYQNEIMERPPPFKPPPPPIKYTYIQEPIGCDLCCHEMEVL
The test is described as follows: FCM on CHO cells expressing mouse CD96.
Description: as §3, §4

B1: BL006-19-14G3-14K1 (antibody, V domains shown)
VH: QVTLKESGPGILQPSQTLSLTCSFSGFSLDTFGMGVGWIRQSSGKGLEWLAHIWWDDDKFYNPALKSRLTVSKDTSKNQVFLKIANVDTADTATYYCAHYYGSLSFDVWGTGTTVTVSS
VL: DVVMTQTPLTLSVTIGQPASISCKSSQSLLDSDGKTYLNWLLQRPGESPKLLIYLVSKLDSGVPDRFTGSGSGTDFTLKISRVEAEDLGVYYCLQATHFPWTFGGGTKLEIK
notes: Recombinant mIgG2a/kappa (also made as mIgG2a-D265A); also called BL006-19-14G3-14K1 #8; candidate NO 6
In the case of B1, in test [1], the midpoint of the response, the EC50, lay at 3.1 nM and the “Maximum binding (delta MFI)” value is 694000 delta MFI. Besides, the “Maximal Inhibition Capacity (%)” value in test [2] worked out at 41.4%. For the same molecule, the binding result in test [3] is on record as “binds”. In addition, in test [4], the IC50 came to 2.67 nM. Besides, the binding result in test [5] is “no binding (tested: 1 and 10 µg/mL)”.

B2: BL006-8-3G9-3K4 (antibody, V domains shown)
VH: QVQLQQSGAELVRPGASVKLSCKASGYRFTDYEMEWVKQTPVHGLEWIGAIDPETGGTAYNQKFKGKATVTADKSSRTAYMELRSLTSEDSAVYYCTREGDGSYGAYWGQGTLVTVSA
VL: DVMMTQTPLSLPVSLGDQASISCRSSQSIVYSNGNTYLEWYLQKPGQSPKLLMYKVSNRFSGVPDRFSGSGSGTDFTLKISRVEAEDLGVYYCFQGSHAPWTFGGGTKLEIK
notes: Recombinant mIgG2a/kappa (also made as mIgG2a-D265A); also called BL006-8-3G9-3K4 #6; candidate NO 4
In the case of B2, in test [1], the EC50 is 4.68 nM and the “Maximum binding (delta MFI)” value came to 235000 delta MFI. In addition, in test [2], the “Maximal Inhibition Capacity (%)” value was less than 5%. Further, the binding result in test [3] is “no binding (tested: 10 µg/ml)”. Moreover, the binding result in test [5] was “no binding (tested: 1 and 10 µg/mL)”.

B3: BL006-19-190G4-190K6 (antibody, V domains shown)
VH: EVQLVESGGGLVQPGGSLKLSCAASGFTFSNYGMSWVRQTPDKRLELVATINSNGGSTYYPDSVKGRFTISRDNAKNTLYLQMSSLKSEDTAMYYCTKRGAWYFDVWGTGTTVTVSS
VL: DIQMTQSSSSFSVSLGDRVTITCKASEDIYNRLAWYQQKPGNAPRLLISSATSLETGVSSRFSGSGSGKDYTLSITSLQTEDVATYYCQQYWTTPTWTFGGGTKLEIK
notes: Recombinant mIgG2a/kappa (also made as mIgG2a-D265A); also called candidate NO 16
In the case of B3, in test [1], the EC50 came out at 3.39 nM and the “Maximum binding (delta MFI)” value came to 711000 delta MFI. In addition, in test [2], the IC50 came to 11.5 nM and the “Maximal Inhibition Capacity (%)” value worked out at 98.1%. Besides, the binding result in test [3] is on record as “no binding (tested: 10 µg/ml)”. Also, the binding result in test [5] is “no binding (tested: 1 and 10 µg/mL)”.

B4: BL006-19-29G5-29K1 (antibody, V domains shown)
VH: QVTLKESGPGILQSSQTLSLTCSFSGFSLSTFGMGVSWIRKPSGKGLEWLAHIFWDDDKRYNPSLKSRLTISKDTSSNQVFLMINSMDIADTATYYCTRGSNWFAYWGQGTLVTVSA
VL: DIVLTQSPASLAVSLGQRATISCRASESVDSYGNSFMHWYQQKPGQPPKLLIYRASNLESGIPARFSGSGSRTDFTLTINPVEADDVATYYCQQSNEDPLTFGAGTKLELK
notes: Recombinant mIgG2a/kappa (also made as mIgG2a-D265A); also called candidate NO 14
In the case of B4, in test [1], the 50% effective concentration (EC50) amounted to 2.98 nM and the “Maximum binding (delta MFI)” value was 753000 delta MFI. Besides, the “Maximal Inhibition Capacity (%)” value in test [2] was determined as 43.1%. The binding result in test [3] is “binds”. Also, the IC50 in test [4] is 5.24 nM. Also, the binding result in test [5] is “no binding (tested: 1 and 10 µg/mL)”.
